One molecule from patent US20150148405A1 (Johns Hopkins, published 2015) can be followed below.

In the assay the target is ribosomal protein S6 (RPS6) (mouse, UniProt P62754 1-249). The assay can be described thus: co-immunoprecipitation with GW182 antiserum from hippocampal neuron lysates, immunoblot. As for the experimental part: Proteins and mRNAs associated with P-body component GW182 were isolated through immunoprecipitation of GW182 by modification of previously published protocols (Keene et al., 2006; Moser et al., 2009). Primary cultures of mouse hippocampal neurons (DIV 14-15) were incubated in serum-reduced medium (0.5% B27 supplement) for 2 hours, followed by […] Actinomycin-D for […] and mock or BDNF-stimulation for 30˜60 min. Cell lysates were harvested in polysomal lysis buffer (100 mM KCl, 5 mM MgCl₂, 10 mM HEPES pH 7.0, 0.5% NP-40) with protease inhibitor cocktail and freshly added 20 mM EDTA, 1 mM DTT, 100 U/mL RNase inhibitor (RNaseOut, Invitrogen) and 400 μM Vanadyl ribonucleoside complexes (SIGMA). Lysates were centrifuged and the supernatants pre-cleared by one-hour incubation with recombinant protein G beads pre-washed in NT2 buffer (50 mM Tris-HCl pH 7.4, 150 mM NaCl, 1 mM MgCl₂, 0.05% NP-40). Antibody coating of protein G beads was carried out with antiserum against GW182 (18033, gift of M. Fritzler) or control isotype-specific serum in NT2 buffer plus protease inhibitor for 4 hours after blocking with NT2 buffer plus 5% BSA and 1 mg/mL heparin for 1 hour. For immunoprecipitation (IP), equal amounts of lysate protein (2-5 mg) was incubated with antibody-coated beads and tumbled for 4 hours at 4° C., followed by washing. […]

B1: GW182 (other)
chain: MRELEAKATKDVERNLSRDLVQEEEQLMEEKKKKKDDKKKKEAAQKKATEQKIKVPEQIKPSVSQPQPANSDNGTSTATSTNNNAKRATASNQQPPPPQQQQPQQEQQQQQPQALPRYPREVPPRFRHQEHKQLLKRGQHFPVIAANLGSAVKVLNSQSESSAVTNQQPQNNGEVQNSKSQSDINHNTSGSHYENCQRGPVSSTSDCSTSCKNAVNDLLEKEAWPSAPGSDPELAPECIDADSASNSESERNITVMASGNTGGEKDGLRNSTGLGSQSKFVVGSSSNNVGHGSSTGPWGFPHGALISTCQVSVDAPESKPESSNNRMNAWGTVSSSSNGGLNPSTLNSASNHGAWPVLENNGLALKGPVGSGSSGINIQCSTIGQMPNNQNINSKVSGSSTHGTWGSLQETCEPEVSGTQKVSFSGQPQNITTETTGPNNTTNFMTSSLPNSGSVQNNELPTSNPGAWRVSTMNHPQIQAPSVMNGTSLSHLSNGESKTGGSYGTTWGAYGSNYSGDKCAGPNGQANGDTVNATLMQPGINGPMGTNFQVNTNKGGGVWEPGTVNSQSSPWGSGNGANSGGSRRGWGSPAQNTGTGLSSVEWNKLPSNQHSNDSANGNGKKLTNGWKSTEEDDQGSATSQTNEQNSVWAKAGGTVESDGSAESTGRLEEKVTGESQSRDRRKIDQHTLLQSIVNRTDLDPRVLSNSGWGQTPIKQNTAWDTETSPRGERKTDNGTEAWGSSATQTFNSGACTDKTSPNSNDTSSVSGWGDPKPTLRWGDSKGSNCQGGWEDDSAATGMIKSNQWGGCKEDKSTWNDSQKSKQGWGDGQKSSQGWSISAGDNWGESSRSNHWGEANKKSSSGGSDSDRSISGWNELGKTSSFTWGNNINPNNSSGWDESSKPNSSQGWGDPPKCNQSLGWGDSSKPVSSPDWNKQQDIVGSWGIPPATSKPPGTGWLGGPIPAPAKEEEPTGWEEPSPESIRRKMEIDDGTSAWGDPSKYNYKNVNMWNKNIPEASGRSDQQAQMHRLLPAASAVSSKETSSGSGWGEPWAEPSTPATTVDNGTSAWGKPIDSGPSWGEPITAASNASTWGSSSVGPQSLSKSGPKSMQDGWCGDDMPLPGSRPTGWEEEEDVEIGMWNSNSSQELNSSLNWPPYTKKMSSKGLSGKKRRRERGMMKGGNKQEDAWINPFVKQFSNISFSRDSPEENVQSNKMDLSGGMLQDKRMEIDKHSLNIGDYNRTVGKGPGSRPQISKESSMERNPYFDKNGNPNMFGVGNTAAQPRGMQQPPAQPLSSSQPNLRAQVPPPLLSPQVPVSLLKYAPNNGGLNPLFGPQQVAMLNQLSQLNQLSQISQLQRLLAQQQRAQSQRSAPSANRQQQDQQGRPLSVQQQMMQQSRQLDPSLLVKQQTPPSQQPLHQPAMKSFLDNVMPHTTPELQKGPSPVNAFSNFPIGLNSNLNVNMDMNSIKEPQSRLRKWTTVDSMSVNTSLDQNSSKHGAISSGFRLEESPFVPYDFMNSSTSPASPPGSIGDGWPRAKSPNGSSSVNWPPEFRPGEPWKGYPNIDPETDPYVTPGSVINSLSINTVREVDHLRDRNSGSSSSLNTTLPSTSAWSSIRASNYNVPLSSTAQSTSARNSDSKLTWSPGSVTNTSLAHELWKVPLPPKNITAPSRPPPGLTGQKPPLSTWDNSPLRVGGGWGNSDARYTPGSSWGESSSGRITNWLVLKNLTPQIDGSTLRTLCMQHGPLITFHLNLPHGNALVRYSSKEEVVKAQKSLHMCVLGNTTILAEFASEEEISRFFAQSQSLTPSPGWQSLGSSQSRLGSLDCSHSFSSRTDVNHWNGAGLSGANCGDLHGTSLWGTPHYSTSLWGPPSSDPRGISSPSPINAFLSVDHLGGGGESM
notes: Endogenous protein pulled down from neuronal lysate with GW182 antiserum 18033 (gift of M. Fritzler) on protein G beads; also called TNRC6a; P-body component GW182
On to B1, for which the binding result is recorded as “no binding”.
